Measurements as given in FireProtDB.
Several values for one entry are separate records, joined by “and”; a condition that tells them apart may be missing. Identical values can stand only once.

Conditions: whole UniProt chain shown; for Tm / unfolding enthalpy (calorimetric) / unfolding enthalpy (van 't Hoff): Thermal
[1] = Bos taurus, pH 7.4, 23 °C, GdnHCl, CD, Sodium phosphate 200 mM, reversible: yes
[2] = Enterobacteria phage T4, pH 8, DSC, Tris-HCl 10 mM, NaCl 200 mM, reversible: yes
[3] = Drosophila melanogaster, pH 6, 5 °C, GdnHCl, CD, sodium phosphate 50 mM, reversible: yes
[4] = Drosophila melanogaster, pH 6, 5 °C, GdnHCl, Fluorescence, sodium phosphate 50 mM, Na2SO4 0.4 M, reversible: yes
[5] = Drosophila melanogaster, pH 6, CD, sodium phosphate 50 mM, Na2SO4 0.4 M, reversible: yes
[6] = Dictyostelium discoideum, pH 7.5, DSC, HEPES-NaOH 50 mM, reversible: no
[7] = Dictyostelium discoideum, pH 7.5, DSC, HEPES-NaOH 50 mM, transition: 3, reversible: no
[8] = Dictyostelium discoideum, pH 7.5, DSC, HEPES-NaOH 50 mM, transition: 3, reversible: yes
[9] = Dictyostelium discoideum, pH 8, 25 °C, Urea, Absorbance, Tris-acetate 83 mM, reversible: yes
[10] = Bos taurus, pH 6.8, 27 °C, GdnHCl, Absorbance, Sodium phosphate 50 mM, NaCl 50 mM, reversible: no
[11] = Bos taurus, pH 7.2, DSC, phosphate 20 mM, transition: 3, reversible: no
[12] = Cavia porcellus, pH 7.4, 25 °C, Urea, CD, NaPi 0.01 M, NaCl 0.15 M, reversible: Yes
[13] = Cavia porcellus, pH 7.4, DSC, NaPi 0.01 M, NaCl 0.15 M, reversible: No
[14] = Drosophila melanogaster, pH 6.5, 25 °C, Urea, Fluorescence, sodium phosphate 20 mM

B1: Beta-crystallin B2 wild type, P02522 (protein)
chain: MASDHQTQAGKPQPLNPKIIIFEQENFQGHSHELNGPCPNLKETGVEKAGSVLVQAGPWVGYEQANCKGEQFVFEKGEYPRWDSWTSSRRTDSLSSLRPIKVDSQEHKITLYENPNFTGKKMEVIDDDVPSFHAHGYQEKVSSVRVQSGTWVGYQYPGYRGLQYLLEKGDYKDSGDFGAPQPQVQSVRRIRDMQWHQRGAFHPSS
In the case of B1, the Tm (Bos taurus, pH 7.2, fluorescence, sodium phospahte 20 mM, NaCl, transition: 2) is reported as 56.8 °C.

B2: Chymosin wild type, P00794 (protein)
chain: MRCLVVLLAVFALSQGAEITRIPLYKGKSLRKALKEHGLLEDFLQKQQYGISSKYSGFGEVASVPLTNYLDSQYFGKIYLGTPPQEFTVLFDTGSSDFWVPSIYCKSNACKNHQRFDPRKSSTFQNLGKPLSIHYGTGSMQGILGYDTVTVSNIVDIQQTVGLSTQEPGDVFTYAEFDGILGMAYPSLASEYSIPVFDNMMNRHLVAQDLFSVYMDRNGQESMLTLGAIDPSYYTGSLHWVPVTVQQYWQFTVDSVTISGVVVACEGGCQAILDTGTSKLVGPSSDILNIQQAIGATQNQYGEFDIDCDNLSYMPTVVFEINGKMYPLTPSAYTSQDQGFCTSGFQSENHSQKWILGDVFIREYYSVFDRANNLVGLAKAI
In the case of B2, the unfolding free energy (Bos taurus, pH 7.5, 25 °C, Urea, CD, Tris-HCl 20 mM, reversible: yes) is reported as 27 kJ/mol and the unfolding free energy (Bos taurus, pH 9, 25 °C, Urea, CD, Tris-HCl 20 mM, reversible: yes) is reported as 14.9 kJ/mol and 14.5 kJ/mol.

B3: Thiosulfate sulfurtransferase wild type, P00586 (protein)
chain: MVHQVLYRALVSTKWLAESVRAGKVGPGLRVLDASWYSPGTREARKEYLERHVPGASFFDIEECRDKASPYEVMLPSEAGFADYVGSLGISNDTHVVVYDGDDLGSFYAPRVWWMFRVFGHRTVSVLNGGFRNWLKEGHPVTSEPSRPEPAIFKATLNRSLLKTYEQVLENLESKRFQLVDSRAQGRYLGTQPEPDAVGLDSGHIRGSVNMPFMNFLTEDGFEKSPEELRAMFEAKKVDLTKPLIATCRKGVTACHIALAAYLCGKPDVAIYDGSWFEWFHRAPPETWVSQGKGGKA
Work on B3 yielded a denaturant m value [1] of 2.34 kcal/mol/M and an unfolding free energy [1] of 14.2 kJ/mol.

B4: Single-stranded DNA-binding protein wild type, P03695 (protein)
chain: MFKRKSTAELAAQMAKLNGNKGFSSEDKGEWKLKLDNAGNGQAVIRFLPSKNDEQAPFAILVNHGFKKNGKWYIETCSSTHGDYDSCPVCQYISKNDLYNTDNKEYSLVKRKTSYWANILVVKDPAAPENEGKVFKYRFGKKIWDKINAMIAVDVEMGETPVDVTCPWEGANFVLKVKQVSGFSNYDESKFLNQSAIPNIDDESFQKELFEQMVDLSEMTSKDKFKSFEELNTKFGQVMGTAVMGGAAATAAKKADKVADDLDAFNVDDFNTKTEDDFMSSSSGSSSSADDTDLDDLLNDL
With B4 the Tm [2] was 49 °C and the “unfolding enthalpy (calorimetric)” value [2] was 351 kJ/mol.

B5: Growth factor receptor-bound protein 2 wild type, Q08012 (protein)
chain: MEAIAKHDFSATADDELSFRKTQILKILNMEDDSNWYRAELDGKEGLIPSNYIEMKNHDWYYGRITRADAEKLLSNKHEGAFLIRISESSPGDFSLSVKCPDGVQHFKVLRDAQSKFFLWVVKFNSLNELVEYHRTASVSRSQDVKLRDMIPEEMLVQALYDFVPQESGELDFRRGDVITVTDRSDENWWNGEIGNRKGIFPATYVTPYHS
For B5, the denaturant m value [3] was 3.48 kcal/mol/M, the unfolding free energy [3] was 6.15 kJ/mol and the denaturant m value [4] was 1.39 kcal/mol/M. The unfolding free energy [4] was 9.12 kJ/mol, the Tm [5] was 60.1 °C and the “unfolding enthalpy (van 't Hoff)” value [5] was 138 kJ/mol.

B6: Nucleoside diphosphate kinase, mitochondrial wild type, P34093 (protein)
chain: MFSRFARAFPKILASGASQRTFATVQKAFANPTSKKLIVGSSLLIGSAFATTSFVACENKSVPLVGLPGTNQERSFIAIKVSSTQRRLIGEIIARFEKKGFKLVGIKILVPTPEHAAKHYEDLNKKPFFNGLVKFFSSGAVVAMVFEGKDVVRTGRVLIGATDPSQSAPGTIRFDLCIETGRNIIHGSDSNESAAHEIALWFKEDEIANWVSTNPVYEKM
For B6, the Tm [6] was 61.8 °C, the “unfolding enthalpy (calorimetric)” value [6] was 3280 kJ/mol and the Tm [7] was 55.7 °C. For the same protein, the “unfolding enthalpy (calorimetric)” value [7] was 1330 kJ/mol, the Tm [8] was 37.5 °C and the “unfolding enthalpy (calorimetric)” value [8] was 406 kJ/mol. The denaturant m value [9] was 1.71 kcal/mol/M and the unfolding free energy [9] was 22.7 kJ/mol.

B7: Gamma-crystallin B wild type, P02526 (protein)
chain: MGKITFYEDRGFQGHCYECSSDCPNLQPYFSRCNSIRVDSGCWMLYERPNYQGHQYFLRRGDYPDYQQWMGFNDSIRSCRLIPQHTGTFRMRIYERDDFRGQMSEITDDCPSLQDRFHLTEVHSLNVLEGSWVLYEMPSYRGRQYLLRPGEYRRYLDWGAMNAKVGSLRRVMDFY
For B7, the denaturant m value [10] was 1.3 kcal/mol/M and 0.9 kcal/mol/M, the “denaturant midpoint (higher = more stable)” value [10] was 3 M and 1.3 M and the “unfolding enthalpy (calorimetric)” value (Bos taurus, pH 7.2, DSC, phosphate 20 mM, reversible: no) was 344 kJ/mol and 623 kJ/mol and 377 kJ/mol. For the same protein, the “unfolding enthalpy (calorimetric)” value [11] was 527 kJ/mol and 619 kJ/mol and the “unfolding enthalpy (van 't Hoff)” value [11] was 460 kJ/mol and 297 kJ/mol.

B8: wild type, Q8VD40 (protein)
chain: MDGDGDPESVGQPEEVSPEEACAEEACAEGDRPGEEEEEEQEELEEAAYLAELPEALLLRVLAQLPAAELVQACRLVCLRWKELVDGAPLWLLKCQQEGLVPEGCGEEEERDHWQRFYFLSKRRRNLLRNPCGEEDLEGWCDVEHGGDGWRVEEIPGDSGVEFPQDDSVRKYFASSFEWCRKAQVVDLQAEGYWEELLDTTQPAIVAKDWYSGRSDAGCLYELSVKLLSEHEDVLAEFNTGQVPVSPDSEEGGWTEISHTFTDYGPGVRFVRFEHGGQDAVYWKGWFGARVTNSSVWVEP
For B8, the denaturant m value [12] was 0.79 kcal/mol/M, the unfolding free energy [12] was 11 kJ/mol and the Tm [13] was 57 °C. For the same protein, the “unfolding enthalpy (calorimetric)” value [13] was 590 kJ/mol.

B9: Spermadhesin-1 wild type, P29392 (protein)
chain: MKLSSVIPWALLLSTATVDSMDWLPRNTNCGGILKEESGVIATYYGPKTNCVWTIQMPPEYHVRVSIQYLQLNCNKESLEIIDGLPGSPVLGKICEGSLMDYRSSGSIMTVKYIREPEHPASFYEVLYFQDPQA
B9 gave a Tm (Bos taurus, pH 7, DSC, sodium phosphate 10 mM, reversible: no) of 78.6 °C.

B10: General odorant-binding protein lush wild type, O02372 (protein)
chain: MKHWKRRSSAVFAIVLQVLVLLLPDPAVAMTMEQFLTSLDMIRSGCAPKFKLKTEDLDRLRVGDFNFPPSQDLMCYTKCVSLMAGTVNKKGEFNAPKALAQLPHLVPPEMMEMSRKSVEACRDTHKQFKESCERVYQTAKCFSENADGQFMWP
With B10 the denaturant m value [14] was 1.24 kcal/mol/M and 1.76 kcal/mol/M and 1.77 kcal/mol/M, the “denaturant midpoint (higher = more stable)” value [14] was 2.39 M and 2.98 M and 4.11 M and the unfolding free energy [14] was 12.6 kJ/mol and 22 kJ/mol and 30.8 kJ/mol.
